Assay results from publication PMC3184995.

How the values were obtained:
[1] = biological target: Ac-SLP-1, saposin-like protein from the dog hookworm Ancylostoma caninum (Ancylostoma caninum); experiment: native gel or EMSA; native gel of purified Ac-SLP-1; migrates at 20 kDa under native conditions, at smaller sizes with SDS
[2] = biological target: Ac-SLP-1, saposin-like protein from the dog hookworm Ancylostoma caninum (Ancylostoma caninum); experiment: SEC-MALS; Superose-12 column; samples injected at 5–10 mg mL^−1; 100 mM NaCl, 20 mM HEPES (pH 7.5) or 100 mM Na-citrate (pH 5.0); same result at both pH

Work on “Ac-SLP-1, saposin-like protein from the dog hookworm Ancylostoma caninum (natural protein)” yielded a stoichiometry N [1] of 2 and a stoichiometry N [2] of 2.
